Laboratory results reported in publication PMC5974087, “The RPAP3-Cterminal domain identifies R2TP-like quaternary chaperones” (Nature Communications, 2018).

B1: GFP-RPAP3-Cter [human] / SHQ1 [human (endogenous in HeLa)] (parent)
chain 1: AQFATTVLPPIPANSFQLESDFRQLKSSPDMLYQYLKQIEPSLYPKLFQKNLDPDVFNQIVKILHDFYIEKEKPLLIFEILQRLSELKRFDMAVMFMSETEKKIARALFNHIDKSGLKDSSVEELKKRYGG
chain 2: MLTPAFDLSQDPDFLTIAIRVPYARVSEFDVYFEGSDFKFYAKPYFLRLTLPGRIVENGSEQGSYDADKGIFTIRLPKETPGQHFEGLNMLTALLAPRKSRTAKPLVEEIGASEIPEEVVDDEEFDWEIEQTPCEEVSESALNPQCHYGFGNLRSGVLQRLQDELSDVIDIKDPDFTPAAERRQKRLAAELAKFDPDHYLADFFEDEAIEQILKYNPWWTDKYSKMMAFLEKSQEQENHATLVSFSEEEKYQLRKFVNKSYLLDKRACRQVCYSLIDILLAYCYETRVTEGEKNVESAWNIRKLSPTLCWFETWTNVHDIMVSFGRRVLCYPLYRHFKLVMKAYRDTIKILQLGKSAVLKCLLDIHKIFQENDPAYILNDLYISDYCVWIQKVKSKKLAALAEALKEVSLTKAQLGLELEELEAAALLVQEEETALKAAHSVSGQQTLCSSSEASDSEDSDSSVSSGNEDSGSDSEQDELKDSPSETVSSLQGPFLEESSAFLIVDGGVRRNTAIQESDASQGKPLASSWPLGVSGPLIEELGEQLKTTVQVSEPKGTTAVNRSNIQERDGCQTPNN

Variants of: B1
Test: SILAC quantitative proteomics of GFP IP
Conditions: with SHQ1 [human (endogenous in HeLa)]; read off a plot

Variant	enrichment (Log2 SILAC ratio)
chain 1 AQFATTVLPPIPANSFQLESDFRQLKSSPDMLYQYLKQIEPSLYPKLFQKNLDPDVFNQIVKILHDFYIEKEKPLLIFEILQRLSELKAFDAAVMFMSETEKKIARALFNHIDKSGLKDSSVEELKKRYGG	1.5
